Earlier results in PMC3567247.
Where two headings read alike, the source gives them in different places.

Tests used:
BCMA (Homo sapiens) [1] = molecular target: BCMA (Homo sapiens) (UniProt Q02223); assay: surface plasmon resonance
BR3 (Homo sapiens) [2] = molecular target: BR3 (Homo sapiens) (UniProt Q96RJ3); assay: surface plasmon resonance
BR3 (Homo sapiens) [3] = molecular target: BR3 (Homo sapiens) (UniProt Q96RJ3)
TACI (Homo sapiens) = TACI (Homo sapiens) (UniProt O14836)
BCMA (Homo sapiens) [4] = molecular target: BCMA (Homo sapiens) (UniProt Q02223)
[5] = molecular target: Barstar (Bacillus amyloliquefaciens) (UniProt P11540)
CD40L (Homo sapiens) = CD40L (Homo sapiens) (UniProt P29965)
CD40 (Homo sapiens) = CD40 (Homo sapiens) (UniProt P25942)
Im9 (Escherichia coli) = Im9 (Escherichia coli) (UniProt P13479)
Ribonuclease Inhibitor = Ribonuclease Inhibitor (UniProt P13489)
[6] = molecular target: Ribonuclease Inhibitor (Sus scrofa) (UniProt P10775)
BPTI (Bos taurus) = BPTI (Bos taurus) (UniProt P00974)

BCMA (Homo sapiens), sequence (Q02223 whole entry): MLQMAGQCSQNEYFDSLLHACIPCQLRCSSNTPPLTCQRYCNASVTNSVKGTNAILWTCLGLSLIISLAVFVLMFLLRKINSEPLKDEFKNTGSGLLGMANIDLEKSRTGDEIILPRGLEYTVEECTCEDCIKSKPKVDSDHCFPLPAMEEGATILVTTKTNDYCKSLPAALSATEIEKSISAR
Ribonuclease A, sequence (P61823 27-150): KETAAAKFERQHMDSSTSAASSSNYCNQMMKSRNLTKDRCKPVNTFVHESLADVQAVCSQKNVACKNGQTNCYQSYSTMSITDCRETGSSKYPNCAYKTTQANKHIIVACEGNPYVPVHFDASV
APRIL, sequence (O75888 105-250): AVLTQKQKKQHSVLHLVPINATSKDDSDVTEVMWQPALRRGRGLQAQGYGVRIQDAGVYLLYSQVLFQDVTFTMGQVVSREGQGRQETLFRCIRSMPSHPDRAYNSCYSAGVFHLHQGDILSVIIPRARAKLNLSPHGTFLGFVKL
BR3 (Homo sapiens), sequence (Q96RJ3 whole entry): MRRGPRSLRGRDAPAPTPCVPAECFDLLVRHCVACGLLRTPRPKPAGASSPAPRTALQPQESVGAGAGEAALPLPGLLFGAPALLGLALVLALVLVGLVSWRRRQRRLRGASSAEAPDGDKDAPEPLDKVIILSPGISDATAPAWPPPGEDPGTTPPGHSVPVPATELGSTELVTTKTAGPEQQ
CD40 (Homo sapiens), sequence (P25942 21-277): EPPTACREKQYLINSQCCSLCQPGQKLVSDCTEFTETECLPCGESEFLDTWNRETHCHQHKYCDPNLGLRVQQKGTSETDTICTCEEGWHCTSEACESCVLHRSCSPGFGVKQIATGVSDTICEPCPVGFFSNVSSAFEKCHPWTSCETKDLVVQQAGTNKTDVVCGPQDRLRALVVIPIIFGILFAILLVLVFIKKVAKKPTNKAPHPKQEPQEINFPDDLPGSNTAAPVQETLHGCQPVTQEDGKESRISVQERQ
CD40, sequence (P25942 21-277): as above
TACI (Homo sapiens), sequence (O14836 whole entry): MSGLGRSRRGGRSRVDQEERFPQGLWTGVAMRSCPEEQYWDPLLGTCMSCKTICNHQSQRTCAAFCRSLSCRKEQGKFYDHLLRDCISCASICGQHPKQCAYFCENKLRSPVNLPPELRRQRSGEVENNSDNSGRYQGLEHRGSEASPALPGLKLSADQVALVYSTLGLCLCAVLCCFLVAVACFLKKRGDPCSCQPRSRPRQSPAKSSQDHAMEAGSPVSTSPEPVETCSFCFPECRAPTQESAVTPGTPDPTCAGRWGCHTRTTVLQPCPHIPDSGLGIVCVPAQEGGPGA
Im9 (Escherichia coli), sequence (P13479 whole entry): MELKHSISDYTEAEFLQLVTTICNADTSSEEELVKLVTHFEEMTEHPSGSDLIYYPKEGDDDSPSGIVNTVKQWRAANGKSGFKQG
Ribonuclease Inhibitor (Sus scrofa), sequence (P10775 whole entry): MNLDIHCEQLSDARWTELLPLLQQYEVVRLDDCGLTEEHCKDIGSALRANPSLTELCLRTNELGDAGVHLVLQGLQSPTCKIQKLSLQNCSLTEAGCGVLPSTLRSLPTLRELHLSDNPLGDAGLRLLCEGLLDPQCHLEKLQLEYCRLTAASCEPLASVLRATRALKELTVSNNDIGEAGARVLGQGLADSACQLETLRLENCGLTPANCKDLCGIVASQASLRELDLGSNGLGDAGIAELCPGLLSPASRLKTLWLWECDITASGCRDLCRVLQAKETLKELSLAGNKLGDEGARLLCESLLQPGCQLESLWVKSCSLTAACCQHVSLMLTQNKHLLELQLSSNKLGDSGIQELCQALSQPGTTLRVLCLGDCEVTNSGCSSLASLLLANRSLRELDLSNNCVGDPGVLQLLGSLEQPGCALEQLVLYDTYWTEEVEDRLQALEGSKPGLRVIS
Ribonuclease Inhibitor, sequence (P13489 2-461): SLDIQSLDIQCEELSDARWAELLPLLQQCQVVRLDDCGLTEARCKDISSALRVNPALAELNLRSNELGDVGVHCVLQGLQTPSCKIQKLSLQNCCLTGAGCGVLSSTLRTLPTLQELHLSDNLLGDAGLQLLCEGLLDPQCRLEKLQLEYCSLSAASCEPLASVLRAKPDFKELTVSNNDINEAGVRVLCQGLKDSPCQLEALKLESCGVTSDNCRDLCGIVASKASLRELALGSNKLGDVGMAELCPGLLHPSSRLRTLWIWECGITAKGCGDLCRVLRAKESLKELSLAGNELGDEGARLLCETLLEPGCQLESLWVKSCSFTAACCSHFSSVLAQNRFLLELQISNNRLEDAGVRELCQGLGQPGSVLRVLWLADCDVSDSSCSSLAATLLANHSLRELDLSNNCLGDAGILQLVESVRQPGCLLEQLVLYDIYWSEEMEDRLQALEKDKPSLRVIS
Barstar (Bacillus amyloliquefaciens), sequence (P11540 2-90): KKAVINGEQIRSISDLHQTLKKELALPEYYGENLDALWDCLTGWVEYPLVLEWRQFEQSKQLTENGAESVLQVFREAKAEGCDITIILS
Barnase, sequence (P00648 48-157): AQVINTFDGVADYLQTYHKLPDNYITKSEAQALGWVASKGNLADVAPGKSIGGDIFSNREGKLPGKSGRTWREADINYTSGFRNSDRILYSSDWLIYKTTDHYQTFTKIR
Colicin E9 nuclease, sequence (P09883 449-582): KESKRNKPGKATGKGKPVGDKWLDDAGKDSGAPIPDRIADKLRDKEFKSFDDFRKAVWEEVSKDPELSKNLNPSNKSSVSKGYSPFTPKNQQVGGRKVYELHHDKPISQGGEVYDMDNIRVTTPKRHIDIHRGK
CD40L, sequence (P29965 113-261): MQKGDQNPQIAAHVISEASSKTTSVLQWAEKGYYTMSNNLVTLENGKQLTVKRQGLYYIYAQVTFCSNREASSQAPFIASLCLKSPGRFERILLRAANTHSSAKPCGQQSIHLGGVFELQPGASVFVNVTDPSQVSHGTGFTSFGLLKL
CD40L (Homo sapiens), sequence (P29965 113-261): as above

In the case of APRIL (from UniProt O75888), the Kd (BCMA (Homo sapiens) [1]) is listed as 15 nM and the Kd (BR3 (Homo sapiens) [2]) is listed as > 3000 nM.

For BAFF (from UniProt Q9Y275), the Kd (BR3 (Homo sapiens) [3]) is given as 15 nM, the Kd (TACI (Homo sapiens)) is given as 13 nM and the Kd (BCMA (Homo sapiens) [4]) is given as 1500 nM.

In the case of Barnase (from UniProt P00648), the Kd [5] is listed as 0.0002 nM.

For CD40 (from UniProt P25942), the Kd (CD40L (Homo sapiens)) is listed as 13000 nM.

For CD40L (from UniProt P29965), the Kd (CD40 (Homo sapiens)) is listed as 13000 nM.

For “Colicin E9 nuclease (from UniProt P09883)”, the Kd (Im9 (Escherichia coli)) is given as 0.024 pM.

In the case of Ribonuclease A (from UniProt P61823), the Kd (Ribonuclease Inhibitor) is given as 0.059 pM and the Kd [6] is given as 0.059 pM.

In the case of trypsinogen (from UniProt P00760), the Kd (BPTI (Bos taurus)) is given as 0.06 pM.
